The record followed here is article PMC11303814 (Nature Communications, 2024).

The data set deals with the molecule itself. Nature of the data set: cryo-EM structure.

B1: full-length wild-type rat P2X7 receptor (receptor, UniProt Q64663 1-595, looked up)
chain: MPACCSWNDVFQYETNKVTRIQSVNYGTIKWILHMTVFSYVSFALMSDKLYQRKEPLISSVHTKVKGVAEVTENVTEGGVTKLVHGIFDTADYTLPLQGNSFFVMTNYLKSEGQEQKLCPEYPSRGKQCHSDQGCIKGWMDPQSKGIQTGRCIPYDQKRKTCEIFAWCPAEEGKEAPRPALLRSAENFTVLIKNNIDFPGHNYTTRNILPGMNISCTFHKTWNPQCPIFRLGDIFQEIGENFTEVAVQGGIMGIEIYWDCNLDSWSHRCQPKYSFRRLDDKYTNESLFPGYNFRYAKYYKENGMEKRTLIKAFGVRFDILVFGTGGKFDIIQLVVYIGSTLSYFGLATVCIDLIINTYASTCCRSRVYPSCKCCEPCAVNEYYYRKKCEPIVEPKPTLKYVSFVDEPHIWMVDQQLLGKSLQDVKGQEVPRPQTDFLELSRLSLSLHHSPPIPGQPEEMQLLQIEAVPRSRDSPDWCQCGNCLPSQLPENRRALEELCCRRKPGQCITTSELFSKIVLSREALQLLLLYQEPLLALEGEAINSKLRHCAYRSYATWRFVSQDMADFAILPSCCRWKIRKEFPKTQGQYSGFKYPY
modifications: limited glycosylation and acylation included in the models (sites not given)
On to B1, for which the binding result is on record as “binds”.
